{"source": "patent US20040161821A1", "about": "(COLD SPRING HARBOR LABORATORY, published 2004)", "binders": {"B1": {"name": "MBP.DEP-1(DA) (enzyme, not shown: large carriers; small tags and cut ends)", "chain": "RKKRKDAKNNEVSFSQIKPKKSKLIRVENFEAYFKKQQADSNCGFAEEYEDLKLVGISQPKYAAELAENRGKNRYNNVLPYDISRVKLSVQTHSTDDYINANYMPGYHSKKDFIATQGPLPNTLKDFWRMVWEKNVYAIIMLTKCVEQGRTKCEEYWPSKQAQDYGDITVAMTSEIVLPEWTIRDFTVKNIQTSESHPLRQFHFTSWPAHGVPDTTDLLINFRYLVRDYMKQSPPESPILVHCSAGVGRTGTFIAIDRLIYQIENENTVDVYGIVYDLRMHRPLMVQTEDQYVFLNQCVLDIVRSQKDSKVDLIYQNTTAMTIYENLAPVTTFGKTNGYIA", "notes": "also called DEP-1 substrate-trapping mutant (DA); DEP-1(DA) cytoplasmic domain fusion protein"}, "B2": {"name": "MBP.DEP-1 (enzyme, not shown: large carriers)", "chain": "RKKRKDAKNNEVSFSQIKPKKSKLIRVENFEAYFKKQQADSNCGFAEEYEDLKLVGISQPKYAAELAENRGKNRYNNVLPYDISRVKLSVQTHSTDDYINANYMPGYHSKKDFIATQGPLPNTLKDFWRMVWEKNVYAIIMLTKCVEQGRTKCEEYWPSKQAQDYGDITVAMTSEIVLPEWTIRDFTVKNIQTSESHPLRQFHFTSWPDHGVPDTTDLLINFRYLVRDYMKQSPPESPILVHCSAGVGRTGTFIAIDRLIYQIENENTVDVYGIVYDLRMHRPLMVQTEDQYVFLNQCVLDIVRSQKDSKVDLIYQNTTAMTIYENLAPVTTFGKTNGYIA", "notes": "also called wild type DEP-1 (MBP-DEP-1); wildtype DEP-1 fusion protein"}, "B3": {"name": "full length DEP-1(CS) (protein)", "chain": "AGGTPSPIPDPSVATVATGENGITQISSTAESFHKQNGTGTPQVETNTSEDGESSGANDSLRTPEQGSNGTDGASQKTPSSTGPSPVFDIKAVSISPTNVILTWKSNDTAASEYKYVVKHKMENEKTITVVHQPWCNITGLRPATSYVFSITPGIGNETWGDPRVIKVITEPIPVSDLRVALTGVRKAALSWSNGNGTASCRVLLESIGSHEELTQDSRLQVNISDLKPGVQYNINPYLLQSNKTKGDPLGTEGGLDASNTERSRAGSPTAPVHDESLVGPVDPSSGQQSRDTEVLLVGLEPGTRYNATVYSQAANGTEGQPQAIEFRTNAIQVFDVTAVNISATSLTLIWKVSDNESSSNYTYKIHVAGETDSSNLNVSEPRAVIPGLRSSTFYNITVCPVLGDIEGTPGFLQVHTPPVPVSDFRVTVVSTTEIGLAWSSHDAESFQMHITQEGAGNSRVEITTNQSIIIGGLFPGTKYCFEIVPKGPNGTEGASRTVCNRTVPSAVFDIHVVYVTTTEMWLDWKSPDGASEYVYHLVIESKHGSNHTSTYDKAITLQGLIPGTLYNITISPEVDHVWGDPNSTAQYTRPSNVSNIDVSTNTTAATLSWQNFDDASPTYSYCLLIEKAGNSSNATQVVTDIGITDATVTELIPGSSYTVEIFAQVGDGIKSLEPGRKSFCTDPASMASFDCEVVPKEPALVLKWTCPPGANAGFELEVSSGAWNNATHLESCSSENGTEYRTEVTYLNFSTSYNISITTVSCGKMAAPTRNTCTTGITDPPPPDGSPNITSVSHNSVKVKFSGFEASHGPIKAYAVILTTGEAGHPSADVLKYTYDDFKKGASDTYVTYLIRTEEKGRSQSLSEVLKYEIDVGNESTTLGYYNGKLEPLGSYRACVAGFTNITFHPQNKGLIDGAESYVSFSRYSDAVSLPQDPGVICGAVFGCIFGALVIVTVGGFIFWRKKRKDAKNNEVSFSQIKPKKSKLIRVENFEAYFKKQQADSNCGFAEEYEDLKLVGISQPKYAAELAENRGKNRYNNVLPYDISRVKLSVQTHSTDDYINANYMPGYHSKKDFIATQGPLPNTLKDFWRMVWEKNVYAIIMLTKCVEQGRTKCEEYWPSKQAQDYGDITVAMTSEIVLPEWTIRDFTVKNIQTSESHPLRQFHFTSWPDHGVPDTTDLLINFRYLVRDYMKQSPPESPILVHSSAGVGRTGTFIAIDRLIYQIENENTVDVYGIVYDLRMHRPLMVQTEDQYVFLNQCVLDIVRSQKDSKVDLIYQNTTAMTIYENLAPVTTFGKTNGYIA"}, "B4": {"name": "full length wild type DEP-1 (protein)", "chain": "AGGTPSPIPDPSVATVATGENGITQISSTAESFHKQNGTGTPQVETNTSEDGESSGANDSLRTPEQGSNGTDGASQKTPSSTGPSPVFDIKAVSISPTNVILTWKSNDTAASEYKYVVKHKMENEKTITVVHQPWCNITGLRPATSYVFSITPGIGNETWGDPRVIKVITEPIPVSDLRVALTGVRKAALSWSNGNGTASCRVLLESIGSHEELTQDSRLQVNISDLKPGVQYNINPYLLQSNKTKGDPLGTEGGLDASNTERSRAGSPTAPVHDESLVGPVDPSSGQQSRDTEVLLVGLEPGTRYNATVYSQAANGTEGQPQAIEFRTNAIQVFDVTAVNISATSLTLIWKVSDNESSSNYTYKIHVAGETDSSNLNVSEPRAVIPGLRSSTFYNITVCPVLGDIEGTPGFLQVHTPPVPVSDFRVTVVSTTEIGLAWSSHDAESFQMHITQEGAGNSRVEITTNQSIIIGGLFPGTKYCFEIVPKGPNGTEGASRTVCNRTVPSAVFDIHVVYVTTTEMWLDWKSPDGASEYVYHLVIESKHGSNHTSTYDKAITLQGLIPGTLYNITISPEVDHVWGDPNSTAQYTRPSNVSNIDVSTNTTAATLSWQNFDDASPTYSYCLLIEKAGNSSNATQVVTDIGITDATVTELIPGSSYTVEIFAQVGDGIKSLEPGRKSFCTDPASMASFDCEVVPKEPALVLKWTCPPGANAGFELEVSSGAWNNATHLESCSSENGTEYRTEVTYLNFSTSYNISITTVSCGKMAAPTRNTCTTGITDPPPPDGSPNITSVSHNSVKVKFSGFEASHGPIKAYAVILTTGEAGHPSADVLKYTYDDFKKGASDTYVTYLIRTEEKGRSQSLSEVLKYEIDVGNESTTLGYYNGKLEPLGSYRACVAGFTNITFHPQNKGLIDGAESYVSFSRYSDAVSLPQDPGVICGAVFGCIFGALVIVTVGGFIFWRKKRKDAKNNEVSFSQIKPKKSKLIRVENFEAYFKKQQADSNCGFAEEYEDLKLVGISQPKYAAELAENRGKNRYNNVLPYDISRVKLSVQTHSTDDYINANYMPGYHSKKDFIATQGPLPNTLKDFWRMVWEKNVYAIIMLTKCVEQGRTKCEEYWPSKQAQDYGDITVAMTSEIVLPEWTIRDFTVKNIQTSESHPLRQFHFTSWPDHGVPDTTDLLINFRYLVRDYMKQSPPESPILVHCSAGVGRTGTFIAIDRLIYQIENENTVDVYGIVYDLRMHRPLMVQTEDQYVFLNQCVLDIVRSQKDSKVDLIYQNTTAMTIYENLAPVTTFGKTNGYIA"}}, "key": {"E-cadherin": {"target": "T1, E-cadherin (human, UniProt P12830 155-882)", "T1 construct": "Endogenous protein in lysate of pervanadate-treated T-47D cells", "T1 sequence (looked up)": "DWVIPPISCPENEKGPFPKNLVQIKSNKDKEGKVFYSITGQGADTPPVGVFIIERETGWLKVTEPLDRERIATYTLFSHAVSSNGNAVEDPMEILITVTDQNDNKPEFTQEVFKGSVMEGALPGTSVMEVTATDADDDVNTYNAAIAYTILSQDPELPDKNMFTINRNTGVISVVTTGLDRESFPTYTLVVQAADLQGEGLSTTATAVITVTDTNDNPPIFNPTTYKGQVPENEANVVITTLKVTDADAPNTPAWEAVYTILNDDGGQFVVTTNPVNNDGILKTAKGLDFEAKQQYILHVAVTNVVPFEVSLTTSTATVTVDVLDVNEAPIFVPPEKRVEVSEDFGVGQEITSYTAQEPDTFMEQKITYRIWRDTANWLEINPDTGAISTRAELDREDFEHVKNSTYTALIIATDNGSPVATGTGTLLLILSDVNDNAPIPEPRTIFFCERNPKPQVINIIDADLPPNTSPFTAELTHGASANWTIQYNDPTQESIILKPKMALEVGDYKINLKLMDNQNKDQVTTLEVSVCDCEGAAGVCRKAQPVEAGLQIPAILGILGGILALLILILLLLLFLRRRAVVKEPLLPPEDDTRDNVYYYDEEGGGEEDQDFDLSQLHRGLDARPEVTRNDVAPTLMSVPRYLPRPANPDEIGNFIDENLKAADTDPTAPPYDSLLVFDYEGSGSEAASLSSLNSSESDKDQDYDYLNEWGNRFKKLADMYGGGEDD", "assay": "amylose pull-down from pervanadate-treated T-47D lysate, anti-E-cadherin immunoblot", "description": "(§1) Substrate trapping—Prior to lysis, T-47D and T-47D/Met cells were treated with 50 μM pervanadate for 20 minutes, whereas MDA-MB-231 cells were treated with 100 μM pervanadate for 20 minutes. Cells were rinsed with PBS and lysed in 1% NP-40 buffer (1% NP-40,150 mM NaCl, 20 mM HEPES pH7.5, 1 mM EDTA, 5 μg/ml aprotinin, 5 μg/ml leupeptin, 1 mM benzamidine). For trapping experiments in vitro, the lysis buffer also contained 5 mM iodoacetic acid to inhibit cellular PTPs irreversibly. After incubation on ice for 5 minutes, dithiothreitol was added to a final concentration of 10 mM to inactivate any unreacted iodoacetic acid. Insoluble material was removed by centrifugation. […] Lysates and fusion proteins were incubated at 4° C. for 2 hours and then washed extensively with 1% NP-40 buffer. Tyrosine phosphorylated proteins were immunoprecipitated using 0.1 mg T-47D cell lysate and a combination of 5 μl each of anti-phosphotyrosine antibodies PT-66 and 4G10. Lysate and antibodies were incubated at 4° C. for 2 hours and washed extensively with 1% NP-40 buffer."}, "Met, the HGF/SF receptor": {"target": "T2, Met, the HGF/SF receptor (Homo sapiens (Human), UniProt P08581 25-1390, tyrosine phosphorylated (cells treated with pervanadate); sites not stated)", "T2 construct": "also called HGF-R; HGF/SF receptor Met", "assay": "amylose pull-down from pervanadate-treated T-47D/Met lysate, anti-Met immunoblot", "description": "as §1"}, "[1]": {"target": "T3, chimeric receptor CSF-MET, P07333", "T3 chain": "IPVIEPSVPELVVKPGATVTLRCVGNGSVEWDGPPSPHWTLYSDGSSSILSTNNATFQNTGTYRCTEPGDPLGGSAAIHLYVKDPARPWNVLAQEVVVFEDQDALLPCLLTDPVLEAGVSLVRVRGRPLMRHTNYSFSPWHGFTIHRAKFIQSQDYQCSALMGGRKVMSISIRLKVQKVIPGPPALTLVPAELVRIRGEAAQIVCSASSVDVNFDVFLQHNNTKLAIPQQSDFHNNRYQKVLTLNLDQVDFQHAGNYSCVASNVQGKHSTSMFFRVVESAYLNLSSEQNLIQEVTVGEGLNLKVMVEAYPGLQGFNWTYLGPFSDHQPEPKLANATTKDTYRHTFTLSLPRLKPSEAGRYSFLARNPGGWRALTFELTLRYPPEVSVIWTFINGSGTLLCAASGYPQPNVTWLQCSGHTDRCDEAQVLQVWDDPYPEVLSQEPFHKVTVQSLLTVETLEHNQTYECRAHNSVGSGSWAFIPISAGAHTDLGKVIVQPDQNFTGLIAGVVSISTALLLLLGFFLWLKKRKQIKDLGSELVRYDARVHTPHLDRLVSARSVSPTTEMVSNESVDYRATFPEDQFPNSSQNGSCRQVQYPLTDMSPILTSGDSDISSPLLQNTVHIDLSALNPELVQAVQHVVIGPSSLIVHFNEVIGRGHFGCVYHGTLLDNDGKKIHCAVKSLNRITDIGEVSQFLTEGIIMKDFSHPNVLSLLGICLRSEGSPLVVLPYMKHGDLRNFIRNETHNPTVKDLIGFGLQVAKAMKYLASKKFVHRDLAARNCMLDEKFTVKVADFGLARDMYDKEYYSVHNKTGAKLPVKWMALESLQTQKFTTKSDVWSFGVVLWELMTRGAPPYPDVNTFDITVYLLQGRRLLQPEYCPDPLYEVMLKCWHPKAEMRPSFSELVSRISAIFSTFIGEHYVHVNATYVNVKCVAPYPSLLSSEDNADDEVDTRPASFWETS"}}, "data": [{"binder": "B1", "values": [{"measurement": "binding result", "setting": "E-cadherin", "result": "no binding (tested: 1 µg fusion protein to 500 µg lysate)"}]}, {"binder": "B2", "values": [{"measurement": "binding result", "setting": "Met, the HGF/SF receptor", "result": "no binding (tested: 1 µg fusion protein to 500 µg lysate)"}]}, {"binder": "B3", "values": [{"measurement": "phosphorylation of Met (phospho-specific antibodies)", "setting": "[1]", "result": "no effect on phosphorylation of Met was observed with the expression of DEP-1(CS)"}, {"measurement": "phosphorylation of Tyr^1349 of Met (phospho-specific antibody)", "setting": "[1]", "result": "no change in the phosphorylation level of Tyr^1349 was observed in the presence of DEP-1(CS)"}]}, {"binder": "B4", "values": [{"measurement": "phosphorylation of Tyr^1230, Tyr^1234 and Tyr^1235 of Met (phospho-specific antibodies)", "setting": "[1]", "result": "a gradual decrease in the level of phosphorylation of the activation loop tyrosine residues was observed with increasing expression of wild type DEP-1"}, {"measurement": "phosphorylation of Tyr^1349 of Met (phospho-specific antibody)", "setting": "[1]", "result": "Tyr^1349 was nearly completely dephosphorylated in the presence of low levels of DEP-1"}, {"measurement": "phosphorylation of Tyr^1365 of Met (phospho-specific antibody)", "setting": "[1]", "result": "Tyr^1365 was nearly completely dephosphorylated in the presence of low levels of DEP-1"}]}]}
